Assay results published in PMC10269695, “HtpG Is a Metal-Dependent Chaperone Which Assists the DnaK/DnaJ/GrpE Chaperone System of Mycobacterium tuberculosis via Direct Association with DnaJ2” (Microbiology Spectrum, 2023).

Molecular target: T1, M. tuberculosis HtpG (high-temperature protein G) (M. tuberculosis H37Rv, UniProt P9WMJ7 1-647)
T1 construct: also called mHtpG; Rv2299c; not shown: GST, N-terminal, cleaved
T1 sequence: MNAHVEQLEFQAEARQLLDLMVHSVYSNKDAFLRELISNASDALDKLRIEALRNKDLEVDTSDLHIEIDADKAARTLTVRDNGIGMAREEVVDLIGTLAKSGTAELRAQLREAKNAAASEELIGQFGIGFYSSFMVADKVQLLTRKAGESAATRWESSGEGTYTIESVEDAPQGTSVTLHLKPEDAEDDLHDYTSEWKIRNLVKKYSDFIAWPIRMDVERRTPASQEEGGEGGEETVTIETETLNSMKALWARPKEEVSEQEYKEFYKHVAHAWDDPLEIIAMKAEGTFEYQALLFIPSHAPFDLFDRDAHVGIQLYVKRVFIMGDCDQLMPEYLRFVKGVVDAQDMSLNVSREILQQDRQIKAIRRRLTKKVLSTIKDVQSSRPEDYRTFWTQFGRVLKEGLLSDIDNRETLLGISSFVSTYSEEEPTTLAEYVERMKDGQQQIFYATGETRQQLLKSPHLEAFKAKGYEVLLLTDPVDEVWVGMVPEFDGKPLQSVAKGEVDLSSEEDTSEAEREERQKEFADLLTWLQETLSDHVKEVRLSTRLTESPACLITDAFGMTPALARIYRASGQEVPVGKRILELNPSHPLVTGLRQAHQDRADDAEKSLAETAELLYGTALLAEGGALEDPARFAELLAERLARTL
Assay: BLI
Conditions: both partners purified

B1: M. tuberculosis DnaJ2 (natural protein)
chain: MARDYYGLLGVSKNASDADIKRAYRKLARELHPDVNPDEAAQAKFKEISVAYEVLSDPDKRRIVDLGGDPLESAAAGGNGFGGFGGLGDVFEAFFGGGFGGGAASRGPIGRVRPGSDSLLRMRLDLEECATGVTKQVTVDTAVLCDRCQGKGTNGDSVPIPCDTCGGRGEVQTVQRSLLGQMLTSRPCPTCRGVGVVIPDPCQQCMGDGRIRARREISVKIPAGVGDGMRVRLAAQGEVGPGGGPAGDLYVEVHEQAHDVFVREGDHLHCTVSVPMVDAALGVTVTVDAILDGLSEITIPPGTQPGSVITLRGRGMPHLRSNTRGDLHVHVEVVVPTRLDHQDIELLRELKGRRDREVAEVRSTHAAAGGLFSRLRETFTGR
notes: also called Rv2373c; not shown: GST, N-terminal, cleaved
Kd: ~200 nM
